Target: Man9-V3 glycopeptide (HIV-1 (clade B JRFL mini-V3))
Test: BLI, biotinylated peptide on streptavidin sensor, bivalent avidity model

## DH270.1 (antibody)
  Kd: 331 nM
